Data as given in US9260501B2, “Peptide extended insulins” (priority 2006, dated 2016).

Target: human insulin receptor (Homo sapiens, UniProt P06213)
Experiment: Insulin receptor binding, SPA (Scintillation Proximity Assay) microtiterplate antibody capture assay
Details: binding affinity relative to that of human insulin; purified recombinant human insulin receptor minus exon 11; A14 Tyr[125I]-human insulin tracer
Description: These extended insulins were tested for biological insulin activity as measured by binding affinity to the human insulin receptor relative to that of human insulin as described below.
Insulin Receptor Binding of the Insulins of the Invention
The affinity of the insulins of the invention for the human insulin receptor can be determined by a SPA assay (Scintillation Proximity Assay) microtiterplate antibody capture assay. […] Reagent mix for a single Packard Optiplate (Packard No. 6005190) is composed of 2.4 μl of a 1:5000 diluted purified recombinant human insulin receptor − (minus) exon 11, an amount of a stock solution of A14 Tyr[125I]-human insulin corresponding to 5000 cpm per 100 μl of reagent mix, 12 μl of a 1:1000 dilution of F12 antibody, 3 ml of SPA-beads and binding buffer to a total of 12 ml. A total of 100 μl is then added and a dilution series is made from appropriate samples. To the dilution series is then added 100 μl of reagent mix and the samples are incubated for 16 hours while gently shaken. The phases are then separated by centrifugation for 1 min and the plates counted in a Top-counter. The binding data are fitted using the nonlinear regression algorithm in the GraphPad Prism 2.01 (GraphPad Software, San Diego, Calif.).

human insulin receptor, sequence (P06213 28-746 isoform P06213-2 limits assumed): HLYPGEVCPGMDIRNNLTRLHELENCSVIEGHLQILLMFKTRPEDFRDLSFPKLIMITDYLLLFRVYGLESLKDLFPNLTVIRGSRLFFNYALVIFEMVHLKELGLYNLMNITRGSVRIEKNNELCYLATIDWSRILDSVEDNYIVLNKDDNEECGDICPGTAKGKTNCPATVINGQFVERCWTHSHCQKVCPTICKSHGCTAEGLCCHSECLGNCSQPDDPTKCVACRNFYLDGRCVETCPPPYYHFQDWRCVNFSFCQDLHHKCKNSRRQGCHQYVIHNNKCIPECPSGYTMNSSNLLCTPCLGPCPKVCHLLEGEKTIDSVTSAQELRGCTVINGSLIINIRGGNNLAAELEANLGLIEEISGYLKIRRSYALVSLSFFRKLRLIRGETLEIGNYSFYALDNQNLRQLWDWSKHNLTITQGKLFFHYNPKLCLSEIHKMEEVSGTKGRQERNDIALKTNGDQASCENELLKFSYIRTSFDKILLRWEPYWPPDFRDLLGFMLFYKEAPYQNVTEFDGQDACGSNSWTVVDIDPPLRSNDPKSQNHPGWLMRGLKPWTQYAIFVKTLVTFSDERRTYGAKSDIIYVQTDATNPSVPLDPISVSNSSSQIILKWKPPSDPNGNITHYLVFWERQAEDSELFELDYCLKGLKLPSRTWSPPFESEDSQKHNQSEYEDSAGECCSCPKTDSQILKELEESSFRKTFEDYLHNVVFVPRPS
human insulin receptor, sequence (P06213 763-1382 partner limits assumed): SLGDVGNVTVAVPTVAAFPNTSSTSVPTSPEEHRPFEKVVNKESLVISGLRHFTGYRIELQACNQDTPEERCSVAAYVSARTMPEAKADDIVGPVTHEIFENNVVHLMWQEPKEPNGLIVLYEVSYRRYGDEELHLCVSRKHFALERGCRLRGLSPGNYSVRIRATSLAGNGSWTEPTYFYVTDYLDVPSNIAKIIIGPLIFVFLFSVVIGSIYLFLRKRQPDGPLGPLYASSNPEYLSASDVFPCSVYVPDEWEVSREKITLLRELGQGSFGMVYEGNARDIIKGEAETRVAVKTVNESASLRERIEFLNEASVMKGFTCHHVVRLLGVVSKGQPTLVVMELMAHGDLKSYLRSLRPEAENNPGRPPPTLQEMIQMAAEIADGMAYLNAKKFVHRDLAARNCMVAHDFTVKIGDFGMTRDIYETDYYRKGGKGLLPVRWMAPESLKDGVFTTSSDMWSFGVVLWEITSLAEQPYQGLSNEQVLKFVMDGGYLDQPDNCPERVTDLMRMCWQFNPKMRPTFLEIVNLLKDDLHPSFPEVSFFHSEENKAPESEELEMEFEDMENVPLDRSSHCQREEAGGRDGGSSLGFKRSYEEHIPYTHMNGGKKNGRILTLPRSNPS

Substance | Relative insulin receptor binding [%]
A14E, A21Q, A22-A62G, B25H, desB30 Human Insulin [Example 20] | 2

Target: purified recombinant human insulin receptor - (minus) exon 11 (human) (UniProt P06213)
Experiment: SPA antibody-capture competition assay, displacement of A14 Tyr[125I]-human insulin from recombinant human insulin receptor minus exon 11; affinity relative to human insulin
Details: not given

Substance | Relative insulin receptor binding [%]
A14E, A21Q, A22-A57G, B25H, desB30 Human Insulin (from UniProt P01308) (ligand) | 14
A14E, A21Q, A22-A62G, B25H, desB30 Human Insulin (from UniProt P01308) (ligand) | 2
A21Q, A22-A51G, desB30 Human Insulin (from UniProt P01308) (ligand) | 17
A21Q, A22-A57G, desB30 Human Insulin (from UniProt P01308) (ligand) | 20
A22-27G desB30 Human Insulin (from UniProt P01308) (ligand) | 44
A22-39G desB30 Human Insulin (from UniProt P01308) (ligand) | 30
A22-45G desB30 Human Insulin (from UniProt P01308) (ligand) | 25

Further lines, results first:

Relative insulin receptor binding [%] | Substance
12 | A14E, A21Q, A22-A45G, B25H, desB30 Human Insulin (from UniProt P01308) (ligand)
10 | A14E, A21Q, A22-A45G, B(-6)-(-1)G, B25H, desB30 Human Insulin (from UniProt P01308) (ligand)
11 | A14E, A21Q, A22-A45G, B(-12)-(-1)G, B25H, desB30 Human Insulin (from UniProt P01308) (ligand)
7.2 | A14E, A21Q, A22-A45G, B(-18)-(-1)G, B25H, desB30 Human Insulin (from UniProt P01308) (ligand)
12 | A14E, A21Q, A22G-A51G, B25H, desB30 Human Insulin (from UniProt P01308) (ligand)
14 | A21Q, A22-A45G, B(-6)-(-1G), desB30 Human Insulin (from UniProt P01308) (ligand)
16 | A21Q, A22-A45G, B(-12)-(-1)G, desB30 Human Insulin (from UniProt P01308) (ligand)
13 | A21Q, A22-A45G, B(-18)-(-1)G, desB30 Human Insulin (from UniProt P01308) (ligand)
14 | A21Q, A22-A45G, desB30 Human Insulin (from UniProt P01308) (ligand)
41 | A22-33G desB30 Human Insulin (from UniProt P01308) (ligand)
